In the DeepSol protein solubility set:

test: soluble on expression in E. coli; label from the status in PepcDB or PDB records

Sequence | soluble on expression in E. coli
MGSDKIHHHHHHMKLETIDYRAADSAKRFVESLRETGFGVLSNHPIDKELVERIYTEWQAFFNSEAKNEFMFNRETHDGFFPASISETAKGHTVKDIKEYYHVYPWGRIPDSLRANILAYYEKANTLASELLEWIETYSPDEIKAKFSIPLPEMIANSHKTLLRILHYPPMTGDEEMGAIRAAAHEDINLITVLPTANEPGLQVKAKDGSWLDVPSDFGNIIINIGDMLQEASDGYFPSTSHRVINPEGTDKTKSRISLPLFLHPHPSVVLSERYTADSYLMERLRELGVL | not soluble
GKLKKKGYLRIVTTQGSLNIELHADMAPRACDSFLRLCAVKYFDDTIFHRCIRNFMIQGGRAELRQPSKKKEVQQSPRSISGFPGGAPFEDEFDNRLVHQGIGVLSMANDGKHSNLSEFFITFKSCEHLNNKHTIFGRVVGGLDVLRQWEKLETDKKDKPLKPPKVEEIIVFKNPFEDARKEMEDEKREEEEKEKKKLENA | soluble
MKRLTAKEEEIMGFFWEKGPLFVKEILAFYDEPRPHFNTLSTIVRGLEEKGFLAHHTYGNTYQYYAVVSESDFSKRTLKSVISKYFNNSYLSAVSSLVKEEDISLDDLKKLIQEVEQKNEE | soluble
MAEGNTLISVDYEIFGKVQGVFFRKHTQAEGKKLGLVGWVQNTDRGTVQGQLQGPISKVRHMQEWLETRGSPKSHIDKANFNNEKVILKLDYSDFQIVG | soluble
MGSDKIHHHHHHMILLSFDIEEFDVPKEHQVDISMEEQIKVSVEGTTRILDCLERNQVKATFFCTANFALHAPDIIKRIQEGGHEIASHGFYHWTFEVEDLKRSKDQLEEITGTKVYGYRQARMMPVSEKAVYEAGYIYNSSLNPTFIPGRYMRLSTPRTPFIKDRVMQMPASVTPLLRFPLFWLSCHNLPASLYRWLCKYTHRHDGYFVTYFHPWEFYPLNEHPEWKLPFIIRNHAGEGMEKRLDAFILYFRKKNVSFGRFIDYIKLNKDIMK | not soluble
SGRARRAEQDARAVELGLQLVGDNLQVLHAGNPAEPALRAYLGMGLSELHVLEQPDGADALAALTDYIRDSGAQMVLAGSQAETGEGSGMLPFLLAEGLGWPLVTGLAEVESLSNGTALVLQALPRGQRRRLKVRLPFLATVDNAAPAPRQSAYGPAQRGILDVDKIETVIDDLFTAQSLQPAKPRPKRLKVIKAKSGADRMKAATAKASGGSGQVLKGLSPEQSAAAILKLLIDEGVV | not soluble
MSLSQSLWQRLFNHRQQTKQAVLILGSGRSGTSVMTKCVNLMGISLGTDNLLAPSKRINPKGYFENKDVINIHKSLGSRIRYRPAFKDYYDSPKIKKDRAALTTYLRNFFENEQYLAIKDPRMNDYIELWQRVLADVEVQPAEIVLLRNPMDVVNSNERAWHRDTTLAMRQWQVRTLLSLRDTDREHRILVTYEDLFGQTLTTLKRIATQFNLPWTSDEAALQAQIDDFIDPALQKSDSGENLADFEARTDVKPDVKALYLLGRQAAADPDYFASAEFQQRIDEMTDEYLAKYGALYRDFNEGHHHHHH | soluble
MKIGIVIPAHNEEQHLSACLQSIQQAIQHTGHEQVEILVVLDSCTDQSRSVVESHQVNWIECNFACVGKARDLGIRQLIDQGVIWVACTDADTIVDSDWILCQMLHQPTDAICGVVTLDDLSHLSVQQQQKYLAHYQDSMDHQHIHGANLSFSAEAYIQAGGFEPIPCHEDVSLIEKFIKQCCKVTRSNLEHHHHHH | not soluble
MSLSSPNILLTRIDNRLVHGQVGVTWTSTIGANLLVVVDDVVANDDIQQKLMGITAETYGFGIRFFTIEKTINVIGKAAPHQKIFLICRTPQTVRKLVEGGIDLKDVNVGNMHFSEGKKQISSKVYVDDQDLTDLRFIKQRGVNVFIQDVPGDQKEQIPDEGHHHHHH | soluble
MGSDKIHHHHHHMTWKSVNFDWNHIRAFLVTAEEGTLSAAAKALGLTQPTLSRQVSALETELCITLFERVGQRLVLTSSGLKLLEHARGMGDAALEFSLAVTGQSQKIEGSVIVSAGELTAAYMLPKIISKLRREEPGIDIEVVVTNEASDLKRREADIAIRSFHPTQNDLIAKKIGEEVIWLYGTPEYLDQLPTIPSFSELKDIQIIGFDRSNSLTDVLNKQGWQLSKKNFSLITSFQLLQLALCKEGQGVIFYPEQMGDQEPNLVRAYEHLGPVMKLPVWLVCHQELRTSLRVRRVFDFIATELSDNFY | not soluble
GAHMAGGRSWCLRRVGMSAGWLLLEDGCEVTVGRGFGVTYQLVSKICPLMISRNHCVLKQNPEGQWTIMDNKSLNGVWLNRARLEPLRVYSIHQGDYIQLGVPLENKENAEYEYEVTEEDWETIYPCLSPKNDQMIEK | soluble
GPGSMSFYRTKKVIINSLFSDSSWYCTFRFRNPMTSQRRSCHEGIPSGRVTGNSVTLLSEMRENNAIGVEAVGKERKRPDAMTVLSNVFRTNPAALRLHRELTICIASGETERASDLASVLAGLVKRTTRLDDIEQKCAEEGGRSKVPNDPVPVVGEETVEFLTSNVVRGVSSQSRLESIEILHNDAPGAPYLGEKVAEAAEVKDSEPLPFWKNPDALRLTLLESAFEMALADDNENPLQPGSVEADCLEKERMEILDAYLKREGKRWELQKAAVARAIVATVKDLGVVPEDIHAALQAEGELRLNGSDKRFNVLKHCNIIVRGEVPEVMELQMKGTATRNVEASVSQELDVLINRMSSTGTPLSQRDKDLALFELVMSKSKMRYVVGLHRELQVALDTAPALRKLAVEHRAKSGSVLFVERALKMLNKVAPDGSETTAEDVECIDTISTPVLPFTFMLKMCLWFEAPVAM | not soluble
MISAQSLTRPQLRRQLRKARRVLTRSQQRAAARGLYQQLAQHPLFRRARHVSLYLPMDGEIDPRLLLREAQRRGKATYLPVLNAWPRTRMVFQRVRPGEKFIPNRFRIPEPRINRTKQRPVWALDLVLMPLVGFDDEGGRLGMGGGFYDRSLAYLARRKTWRKPALLGLAHECQKVDRLAQAIWDVPLQGTVSDKQWYLTQRLLEHHHHHH | not soluble
AIAARRNYQVERNKLEEKDPTWLMQKGQIQPLVSSLVVLNVEGERILARYTAKELFPTFDVEKKFEADLLKKSQTIPDLEERVFEHGQHIVVCRASEDLLFFVTSRIYENEVILSEVLTCWVDSLVKVLKNLPLNELNLLQHYEVLLLLVDELVDQEGVIMETDANELSSRTEFAMYSTDPRDLIPELTEQGFSHALQTAKQHLARTILK | soluble
MSLTARSVVLSVLLGAHPAWATASELIQLTADFGIKETTLRVALTRMVGAGDLVRSADGYRLSDRLLARQRRQDEAMRPRTRAWHGNWHMLIVTSIGTDARTRAALRTCMHHKRFGELREGVWMRPDNLDLDLESDVAARVRMLTARDEAPADLAGQLWDLSGWTEAGHRLLGDMAAATDMPGRFVVAAAMVRHLLTDPMLPAELLPADWPGAGLRAAYHDFATAMAKRRDATQLLEVTEGHHHHHH | soluble
SLSDTQEPVKLRIVHFNDVYNVFSISGGLGGGAAPFCTGLREKRGPDGLVLFSGDIFSPSPLSEASKGRQMAELLNYLDVHTSCYGNHDLDFGWEWLELLAGTTKCKWVMSNARSKIGGGVLANAQRYRIFEWGTTQRVVVGIMALIEEDWIDTLNAPDQEEIVYQDFVEAGREMVALFRRRGCDLVIALTHMRWNNDEKLAREVDGIDLILGGHDHAYVTKLVNGTAVIKSGSDFREFSAITLTPKLHLREQGTSHATGFSADHDSLAADGKNGYPVAFSGSTGGVAEVDGLCRQHGDSSHAVKRAGVCECLGRTQPVRQTKPEVVEGIHTEETQPAKLWSSGRWWLSCEKVCVSADRFEADDSVMEMLVRYQTTYGNSQGCVLGAFPVLLETRFCEVRTRECNSGNWLADLMREYYGVDVALYNSGGIRSDCVFAEGEVVTSETLHAILSGTRQLDVIAVPGNLFKSILETSVSRWPQLEGRFLQVSGLRFVFEGSARVGERVLADEIQFRNRETGDWEPLVPDRVYSVATATFLARGGDGLSVLVDCPPLDTPQRNIRDLSELARLWFCRQHRKCGFEDVEEIPPRECEWIDR | not soluble
MNYFNVGKIVNTQGLQGEMRVLSVTDFAEERFKKGAELVLFDEKDQFVQTVTIASHRKQKNFDIIKFKDMYHINTIEKYKGYSLKVAEEDLNDLDDGEFYYHEIIGLEVYEGDSLVGTIKEILQPGANDVWVVKRKGKRDLLLPYIPPVVLNVDIPSKRVDVEILEGLDDEDLEHHHHHH | soluble
MKSQLRKKTLEALSALSNEDILQKTERMYKYLFSLPEWQNAGTIAVTISRGLEIPTRPVIEQAWEEGKQVCIPKCHPDTKKMQFRTYQTDDQLETVYAGLLEPVIEKTKEVNPSQIDLMIVPGVCFDVNGFRVGFGGGYYDRYLSEYEGKTVSLLLECQLFAHVPRLPHDIPVHKLITEDRIISCFSLEHHHHHH | soluble
MNSVGFYGKLAGRGDFVSRGLPNTFVEPWDAWLASGMRASQDELGAAWLDAYLTSPLWRFAIAPGLLGGEAVTGVVMPSIDRVGRYFPLTVACLLPANADLGGLVGGDDGWFEQVESLLLSTLEPEAEVEAFEQAVAQLPAPPCGPRIEQSLISGNLLRSEAVTPAQRLAALAQHACDGASHWWGRGSARISAGLMRYQGLPPAPAFGRFLTGEGEVIPLFPGIPG | soluble
ESDSVEFNNAISYVNKIKTRFLDHPEIYRSFLEILHTYQKEQLHTKGRPFRGMSEEEVFTEVANLFRGQEDLLSEFGQFLPEAKR | soluble
GSGMRFYVKDHRNKAMINLHIQKDNPKIVHAFDMEDLGDKAVYCRCWRSKKFPFCDGAHTKHNEETGDNVGPLIIKKKET | soluble
MGSDKIHHHHHHMKKIRLGIYIEDSEYGDRLTCYFMNHYKVQLEIHMYTMKEQLEHLEGEIDIMLSSELDQWNNKYIPLIQIVEETPIESEEGIYFVEKYQEVNRIVEEILKHVGGEVRDLKSEGSLIGQTRLISVYSLADNQYQMPFAMTLSSILSENEKVLLMDFQENSGLSRMLEQSVEHNLDELLVMAESGRYSTNRINSCIGRKHKLDYVYPIENTECLCEINTVICNNLLQMLGKEMHYDCIVLNMGTRFKGFFDILDRCSDIYLVQKKGGISQWREYEFTEELMERGLSNVVERIKLIEPPVITTPVSTCDKLVELWKWNEFGDVIRNMTRGISCAG | not soluble
MSLEVLATFLYKFNGWSFLGRVLQNLSKNFDFTDREKVDTIVDIMSMLTKVVGEVSVEDSKHALTSMSAYTDDSDVLEVIFRLFEQSLHSRNIRMIESILNLLTQLVPIFSYRIWPAFSKSALLFDGTREGFATVIFGSIEMVNGDFRLTIALAKLTDALVYDCLTLDNAVPSKVKEAVLKKLVSHLIAVMESYAQEGHHHHHH | soluble
MGSDKIHHHHHHMRIVLGVSSGIAIYKAVDLASKLRKEGHELHVVMTPDATRMISPVVFSAVGNCSVYHDWMDVRNGWIPHTEISRTADVLVVAPATANTISKIANGIADNLLTLVALAFDKDAKILVPTMNYRMYSNKLFQENLEKLKNNGWFVVEPEEGHLACGEVGKGRYPENEKIVEAVHLLTFPKKLAGKKVLITAGPTRERIDAVRFITNASSGKMGYALATVAKRMGARVSLVSGPTSLKPPYYVDEFVKVESAEEMYEEVMKRFEDTDIVIMNAAVGDYRPKKVFEGKLKKTENDLVLHLERTKDILKELGQRKSNQILVGFAAEVENFEENAVKKLREKNLDLLVLNDARKAFSSDRVEVYIYGRDGFIKRIDEDDKIRVACGILDVVSNLAGGSPS | not soluble
MGSDKIHHHHHHMSPEPNGDAVSIILETEGPMTAAPKTVRSVERTLQILELMNRAAVVRVQYLAEQIGLPAPTVVRLLETLVAAGYVRKIGRQAGYCVTEKVAALGAGHHGLPQVFDVAREAAEDLTRRTLWPTALATLDVDALVIRFSTIPMSPLSHYQSTINRRMTLLDYAHGRAYLGFCPTEERQHLVALLQQTAGSVEEARAIGERAQSVVALTRASGFGERTGNIQPETHSLALPLRMGAKLVGTLGITYFAKAKVDVSALKSDLRAAAEACTSGTAYRAPASSG | not soluble
